According to patent US20180009892A1:

Legend:
[1] = target: T1, human ROR1 extracellular domain (ECD) protein (human), Q01973; experiment: ForteBio Octet, Wnt5a binding to ROR1 in the presence of antibody 601-3-16
[2] = target: T1, human ROR1 extracellular domain (ECD) …; experiment: ForteBio Octet, Wnt5a binding to ROR1 in the presence of antibody 601-3-12
[3] = target: T1, human ROR1 extracellular domain (ECD) …; experiment: ForteBio Octet, Wnt5a binding to ROR1 in the presence of antibody 601-3-2
[4] = target: T1, human ROR1 extracellular domain (ECD) …; experiment: ForteBio Octet, Wnt5a binding to ROR1 in the presence of the control mAb

T1 sequence (Q01973 30-406 limits assumed): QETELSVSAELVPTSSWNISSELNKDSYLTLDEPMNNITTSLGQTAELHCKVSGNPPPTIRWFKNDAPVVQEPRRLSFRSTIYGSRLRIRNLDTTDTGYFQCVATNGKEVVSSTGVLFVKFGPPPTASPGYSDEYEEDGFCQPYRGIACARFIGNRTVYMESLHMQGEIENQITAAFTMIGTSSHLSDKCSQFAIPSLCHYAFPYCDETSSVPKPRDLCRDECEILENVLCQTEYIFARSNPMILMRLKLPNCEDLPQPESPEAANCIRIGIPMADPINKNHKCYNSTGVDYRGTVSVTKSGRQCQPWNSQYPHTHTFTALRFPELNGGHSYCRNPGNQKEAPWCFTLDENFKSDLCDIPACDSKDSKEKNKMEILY

Pesudo ka [1]: 6700 M⁻¹ s⁻¹
Pesudo ka [2]: 5300 M⁻¹ s⁻¹
Pesudo ka [3]: 13000 M⁻¹ s⁻¹
Pesudo ka [4]: 21000 M⁻¹ s⁻¹
B1: Wnt5a, P41221 62-380 (ligand, UniProt P41221 62-380, looked up)
chain: IIGAQPLCSQLAGLSQGQKKLCHLYQDHMQYIGEGAKTGIKECQYQFRHRRWNCSTVDNTSVFGRVMQIGSRETAFTYAVSAAGVVNAMSRACREGELSTCGCSRAARPKDLPRDWLWGGCGDNIDYGYRFAKEFVDARERERIHAKGSYESARILMNLHNNEAGRRTVYNLADVACKCHGVSGSCSLKTCWLQLADFRKVGDALKEKYDSAAAMRLNSRGKLVQVNSRFNSPTTQDLVYIDPSPDYCVRNESTGSLGTQGRLCNKTSEGMDGCELMCCGRGYDQFKTVQTERCHCKFHWCCYVKCKKCTEIVDQFVCK
